No end group written: not given here. fluorescein = fluorescein label

This passage reports Kd results from article PMC11947617, “Fine‐tuned interactions between globular and disordered regions of single‐stranded DNA binding (SSB) protein are required for dynamic condensation under physiological conditions” (Protein Science : A Publication of the Protein Society, 2025).

The target of the test is T1, Escherichia coli single-stranded DNA binding (SSB) protein, wild type (E. coli, UniProt P0AGE0 1-178).
T1 construct: E. coli SSB, wild type; OB domain aa 1-112, IDL aa 113-177 with the CTP aa 169-177; homotetramer of 19-kDa subunits; Construct as described in Harami et al. (2020); also called SSB-WT; WT; source: E. coli ER2566, purified (Polymin P, ammonium sulfate, heparin, MonoQ)
In words: fluorescence polarisation; 15 nM flu-CTP titrated with SSB or SSBdC; standard LLPS buffer (20 mM Tris-OAc pH 7.5, 50 mM KGlu, 5 mM Mg(OAc)2), no PEG; 25°C; quadratic binding equation. To be noted: both partners purified. (Polarisation of emitted light reports the rotation of a fluorescent probe.)

T1 sequence (P0AGE0 whole entry, the tested form may be a part): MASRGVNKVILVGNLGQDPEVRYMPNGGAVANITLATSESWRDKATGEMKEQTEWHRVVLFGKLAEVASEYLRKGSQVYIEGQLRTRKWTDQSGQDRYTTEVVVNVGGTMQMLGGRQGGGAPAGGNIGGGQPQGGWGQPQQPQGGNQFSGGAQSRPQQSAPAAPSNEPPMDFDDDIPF

B1: fluorescein-labeled SSB C-terminal peptide (peptide)
peptide: fluorescein-MDFDDDIPF
notes: also called flu-CTP; labeled C-terminal peptide
On to B1, for which the Kd is over 100 µM.

As a reminder, the Kd is a measure of binding affinity in units of concentration. Low readings indicate tighter binding, high ones weaker binding.
